Measurements as given in publication doi:10.1101/317651, “Poly(ADP-ribose) polymerase 1 Searches DNA via a ‘Monkey Bar’ Mechanism”.

How the values were obtained:
Conditions in all cases: protein: recombinant; tags: His tag (Ni-NTA, pET28a); blunt
[1] = target: PARP1 wild-type (Homo sapiens, UniProt P09874 1-1014); experiment: stopped-flow fluorescence anisotropy; K1, first DNA; kinetically derived; 50 mM Tris-HCl pH 7.5, 50 mM NaCl, 1 mM MgCl2, 0.1 mM EDTA, 0.01% IGEPAL; 20 °C (stated for association)
PARP1 wild-type, sequence (P09874 whole entry): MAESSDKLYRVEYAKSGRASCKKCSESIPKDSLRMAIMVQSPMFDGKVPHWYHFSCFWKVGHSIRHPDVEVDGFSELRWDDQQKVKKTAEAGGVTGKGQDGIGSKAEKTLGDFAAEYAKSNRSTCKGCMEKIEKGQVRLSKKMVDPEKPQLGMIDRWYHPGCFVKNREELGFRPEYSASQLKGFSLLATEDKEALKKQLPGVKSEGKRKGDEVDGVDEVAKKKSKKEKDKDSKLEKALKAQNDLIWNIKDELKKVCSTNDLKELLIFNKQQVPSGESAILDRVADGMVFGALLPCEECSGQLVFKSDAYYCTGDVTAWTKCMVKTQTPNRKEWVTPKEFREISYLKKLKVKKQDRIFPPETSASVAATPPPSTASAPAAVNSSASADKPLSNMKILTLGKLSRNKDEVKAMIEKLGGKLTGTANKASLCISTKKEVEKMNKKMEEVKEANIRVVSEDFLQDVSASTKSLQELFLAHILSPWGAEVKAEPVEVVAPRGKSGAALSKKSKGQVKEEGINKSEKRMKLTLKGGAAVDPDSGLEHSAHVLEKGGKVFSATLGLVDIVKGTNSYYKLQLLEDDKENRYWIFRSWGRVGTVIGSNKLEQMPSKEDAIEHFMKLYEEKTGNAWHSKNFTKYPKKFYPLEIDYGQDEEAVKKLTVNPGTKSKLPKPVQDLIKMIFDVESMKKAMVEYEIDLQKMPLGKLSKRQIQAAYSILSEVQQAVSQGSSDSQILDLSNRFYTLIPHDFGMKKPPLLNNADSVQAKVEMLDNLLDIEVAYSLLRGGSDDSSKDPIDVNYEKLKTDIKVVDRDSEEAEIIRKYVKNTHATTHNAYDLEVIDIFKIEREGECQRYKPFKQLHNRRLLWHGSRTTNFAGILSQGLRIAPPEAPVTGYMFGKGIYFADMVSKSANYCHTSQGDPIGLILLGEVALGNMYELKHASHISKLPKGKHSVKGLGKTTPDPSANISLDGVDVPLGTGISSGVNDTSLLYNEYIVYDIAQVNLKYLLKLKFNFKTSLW

[2] = target: PARP1 ΔZn1 (Homo sapiens, UniProt P09874 1-1014, del2-96); experiment: as above
PARP1 ΔZn1, sequence (P09874 other isoform, or with tags, fused parts or gaps del2-96 | mutant): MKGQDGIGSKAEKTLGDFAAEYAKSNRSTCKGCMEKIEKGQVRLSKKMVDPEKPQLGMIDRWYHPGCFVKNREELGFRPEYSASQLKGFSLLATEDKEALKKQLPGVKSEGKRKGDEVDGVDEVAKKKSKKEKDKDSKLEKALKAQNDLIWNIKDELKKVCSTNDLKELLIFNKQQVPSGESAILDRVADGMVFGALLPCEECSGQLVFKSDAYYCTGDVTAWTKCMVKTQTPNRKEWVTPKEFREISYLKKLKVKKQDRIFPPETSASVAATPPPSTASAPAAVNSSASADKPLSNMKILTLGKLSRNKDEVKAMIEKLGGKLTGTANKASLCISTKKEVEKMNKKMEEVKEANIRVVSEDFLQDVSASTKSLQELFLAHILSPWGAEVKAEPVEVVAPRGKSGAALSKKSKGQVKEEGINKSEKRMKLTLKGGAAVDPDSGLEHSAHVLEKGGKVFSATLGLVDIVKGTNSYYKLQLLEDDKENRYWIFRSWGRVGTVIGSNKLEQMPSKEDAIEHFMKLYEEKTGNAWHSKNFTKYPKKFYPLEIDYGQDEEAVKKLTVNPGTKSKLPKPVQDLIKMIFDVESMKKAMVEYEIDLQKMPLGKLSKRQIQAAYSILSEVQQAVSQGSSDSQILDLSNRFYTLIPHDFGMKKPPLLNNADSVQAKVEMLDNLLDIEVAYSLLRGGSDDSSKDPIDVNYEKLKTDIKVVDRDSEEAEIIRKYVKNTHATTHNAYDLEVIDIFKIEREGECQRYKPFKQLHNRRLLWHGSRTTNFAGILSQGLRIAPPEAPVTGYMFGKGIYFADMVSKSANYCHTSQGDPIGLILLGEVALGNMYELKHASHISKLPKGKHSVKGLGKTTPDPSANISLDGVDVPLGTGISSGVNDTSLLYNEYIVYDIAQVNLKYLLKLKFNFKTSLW

[3] = target: PARP1 W589A (Homo sapiens, UniProt P09874 1-1014, W589A); experiment: stopped-flow fluorescence anisotropy; K1; kinetically derived, Scheme 2 (no ternary complex); 50 mM Tris-HCl pH 7.5, 50 mM NaCl, 1 mM MgCl2, 0.1 mM EDTA, 0.01% IGEPAL; 20 °C (stated for association)
PARP1 W589A, sequence (P09874 whole entry W589A): as the sequence (P09874 whole entry) above, with W589A counted along it

B1: p18mer* (dsDNA)
DNA 1: GGGTTGCGGCCGCTTGGG
DNA 2: CCCAAGCGGCCGCAACCC
modifications: 5'-phosphate
Kd [1]: < 3.2 nM | Kd [2]: < 2.7 nM | Kd [3]: 4.9 ± 1.1 nM
